Experimental data published in patent US20150080245A1 (CATHOLIC UNIVERSITY INDUSTRY ACADEMIC COOPERATION FOUNDATION, published 2015).

Target: T1, cyclic citrullinated peptide (CCP) derived from filaggrin (X stands for citrulline (9th residue of HQCHQESTXGRSRGRCGRSGS); a chemical bond between the two underlined Cs (cyclic))
T1 construct: Synthesized peptide, coated on ELISA plates at 250 ng/well; also called Filaggrin-derived CCP; CCP peptide
T1 peptide: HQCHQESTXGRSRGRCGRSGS
Assay: ELISA, coated CCP peptide, hybridoma supernatant diluted 1:1000
Procedure: For hybridoma selection, each of the CCP peptide and the CRP peptide, both previously prepared, was diluted to a final concentration of 250 ng/well in PBS or a carbonate buffer. The dilution was allocated in an amount of 50 μl into 96-well plates and incubated for 2 hrs at room temperature or overnight at 4° C. Each well was washed with 200 μl of PBS. To this end, the plates were overturned to decant the solution out of all the wells, and then struck down against paper towel to completely remove the remaining solution. […] After 30 min of the incubation, the color development was terminated with a stop solution, and color intensity to was immediately measured at 450 nm in a single point photo mode. […]
Repeated screening of the hybridoma cells against CCP and CRP left two clones 11G1 and 12G1 in the final stage (FIGS. 7 and 8). FIGS. 6 to 8 list binding intensities of anti-CCP antibodies when they recognized and bound to the target peptide CCP in each screening stage of the hybridomas, as measured by absorbance at 450 nm. […] With reference made to these marked values, how effectively each hybridoma clone produced an anti-CCP antibody was analyzed, and selection was made of effective clones which were then cultured many times so that the effective clones producing anti-CCP antibodies only predominated over other clones.

B1: monoclonal antibody 12G1 produced from the 12G1 hybridoma cell line (accession No. KCLRF-BP-00276) (antibody, V domains shown)
VH: EVKLEESGAELVRPGTSVKISCKASGYGFTNYWLGWIKQRPGHGLEWIGDVYPGSGNTYYNEKFKGKATLTADKSSSTVYMQLSSLTSEDSTVYFCAREGGITTAPYPFGYWGQGTLVTVSA
VL: DIVMTQTPSSMYASLGERVTITCKASQDINSYLSWFQQKPGKSPKTLIYRANRLVDGVPSRFSGSGSGQDYSLTISSLEYEDMGIYYCLQYDEFPWTFGGGTKLEIK
notes: Mouse monoclonal antibody from a hybridoma, detected with anti-mouse IgG; Used as hybridoma supernatant or as purified antibody; also called 12G1 antibody
B1: binds.
